The results in this text go back to US20160032013A1 (Genentech, published 2016).

The target in test [1] is T1, Human RON on cells (3T3-hRON, A2780-hRON, BxPC3, human primary colon cells) (human, UniProt Q04912 25-1400).
T1 construct: That is its entry for human RON
Description: radioligand competition binding on 3T3-hRON cells: fixed 125I-MSP 689R as competitor, unlabeled MSP 689R titrated [Continued) D]. On the procedure: (§1) MSP proteins were iodinated using the Iodogen method (Thermo Scientific) and purified from free Na¹²⁵I by gel filtration using a NAP-5 column. Specific activities ranged from 12.26 to 18.65 μCi/μg. Competition reaction mixtures were made of a fixed concentration of iodinated MSP and unlabeled MSP serially diluted 1- to 2-fold ten times starting at 5 μM in a volume of 50 μL. 3T3-hRon cells were washed with binding buffer, consisting of DMEM with 1% bovine serum albumin, 325 nM human IgG, 50 mM HEPES (pH 7.2) and 0.1% sodium azide. 150,000 cells in 0.2 ml binding buffer were added to competition reaction mixtures. Competition reactions with cells were incubated for 2 h at room temperature and transferred to a Multiscreen filter plate (Millipore) and washed 4 times with binding buffer. Filters were counted on a Wallac Wizard 1470 gamma counter (PerkinElmer Life and Analytical Sciences). Binding affinities were determined using NewLigand software (Genentech, Inc) (Munson et al., 1980, Anal Biochem 107:220-39).
In general terms: In a radioligand displacement assay an active substance lowers the binding of a labelled ligand.

The target in test [2] is T2, Human RON-hIgG1 Fc (RON Sema/PSI/IPT1 fused to human IgG1 Fc) (human).
T2 construct: also called RON-Fc; hRON-Fc
T2 sequence (chain, as listed by the source limits assumed): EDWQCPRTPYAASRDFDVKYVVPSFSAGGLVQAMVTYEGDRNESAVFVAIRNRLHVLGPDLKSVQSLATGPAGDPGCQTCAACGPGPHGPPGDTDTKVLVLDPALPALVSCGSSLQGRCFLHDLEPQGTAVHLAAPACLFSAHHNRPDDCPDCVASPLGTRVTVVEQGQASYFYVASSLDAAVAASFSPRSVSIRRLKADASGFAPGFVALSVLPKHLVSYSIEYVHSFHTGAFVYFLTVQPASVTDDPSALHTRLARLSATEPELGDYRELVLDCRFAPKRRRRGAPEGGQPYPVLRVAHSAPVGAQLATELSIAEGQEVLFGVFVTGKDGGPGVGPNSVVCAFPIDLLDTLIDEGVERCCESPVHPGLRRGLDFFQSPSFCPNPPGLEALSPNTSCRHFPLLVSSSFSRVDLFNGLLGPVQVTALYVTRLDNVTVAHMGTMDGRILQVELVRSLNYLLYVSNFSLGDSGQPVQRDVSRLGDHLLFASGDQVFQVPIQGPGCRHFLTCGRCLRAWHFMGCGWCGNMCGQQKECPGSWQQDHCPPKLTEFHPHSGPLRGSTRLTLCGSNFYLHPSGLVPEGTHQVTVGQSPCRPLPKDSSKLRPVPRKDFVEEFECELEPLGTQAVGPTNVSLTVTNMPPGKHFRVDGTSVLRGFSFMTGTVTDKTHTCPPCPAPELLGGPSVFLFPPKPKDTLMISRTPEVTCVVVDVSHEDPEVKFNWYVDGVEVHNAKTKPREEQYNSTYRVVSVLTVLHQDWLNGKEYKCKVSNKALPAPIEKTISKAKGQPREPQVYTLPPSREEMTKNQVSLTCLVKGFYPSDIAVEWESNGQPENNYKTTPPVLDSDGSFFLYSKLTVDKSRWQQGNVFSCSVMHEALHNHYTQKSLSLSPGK
Description: plate binding assay, plate-bound RON-Fc, soluble His-tagged MSP, anti-His-HRP, 4-parameter fit. An excerpt:
Means of three replicates per group are shown. […] C presents results of SPR analysis of MSP proteins binding to immobilized RON Sema/PSI, showing relative response in response units. Data are representative of three independent experiments. […] Competition binding to 3T3-hRON cells (large graphs) used to generate affinities and Scatchard plots (inset graphs) are shown. Mean+/−standard deviation (SD) of three independent experiments is shown. E is a homology model of the structure of RON Sema/PSI (PDB code 4FWW) shown at the bottom, which binds to MSP β (PDB code 2ASU) shown on top. RON and MSP β were globally aligned to the Met/HGF β complex (PDB code 1SHY). Predicted locations of the MSP β contact residues within 4 Å of RON are marked by asterisks. […]
MaxiSorp plates (Nalge Nunc International) were coated overnight at 4° C. with 2 μg/ml of rabbit anti-human IgG Fc specific antibody (Jackson ImmunoResearch Laboratories) in 50 mM sodium carbonate buffer, pH 9.6. […] Bound MSP was detected using anti-His-HRP (Qiagen Inc.) followed by addition of TMB/H₂O₂ substrate (Thermo Scientific). The reaction was stopped with 1M H₃PO₄ and the absorbance at 450 nm (A₄₅₀) was measured on a SpectraMax Plus³⁸⁴ plate reader (Molecular Devices, LLC). The half maximal effective concentration of MSP (EC₅₀) was determined by a 4-parameter fit using Kaleidagraph (Synergy Software).

Test [3] deals with T1, Human RON on cells (3T3-hRON, …). In words: radioligand binding to 3T3-hRON cells for 2 h at room temperature. The procedure: as §1
The target is the same in test [4]. Description: radioligand binding to 3T3-hRON cells for 4 h on ice.

As a reminder, the EC50 is the midpoint of the concentration-response curve. As a reminder, the Kd is the concentration at which binding is half-saturated.

B1: Full length human MSP 689R (wild type + C672A + His tag), active two-chain form (ligand)
chain 1: QRSPLNDFQVLRGTELQHLLHAVVPGPWQEDVADAEECAGRCGPLMDCRAFHYNVSSHGCQLLPWTQHSPHTRLRRSGRCDLFQKKDYVRTCIMNNGVGYRGTMATTVGGLPCQAWSHKFPNDHKYTPTLRNGLEENFCRNPDGDPGGPWCYTTDPAVRFQSCGIKSCREAACVWCNGEEYRGAVDRTESGRECQRWDLQHPHQHPFEPGKFLDQGLDDNYCRNPDGSERPWCYTTDPQIEREFCDLPRCGSEAQPRQEATTVSCFRGKGEGYRGTANTTTAGVPCQRWDAQIPHQHRFTPEKYACKDLRENFCRNPDGSEAPWCFTLRPGMRAAFCYQIRRCTDDVRPQDCYHGAGEQYRGTVSKTRKGVQCQRWSAETPHKPQFTFTSEPHAQLEENFCRNPDGDSHGPWCYTMDPRTPFDYCALRRCADDQPPSILDPPDQVQFEKCGKRVDRLDQRRSKLR
chain 2: VVGGHPGNSPWTVSLRNRQGQHFCGGSLVKEQWILTARQCFSSCHMPLTGYEVWLGTLFQNPQHGEPSLQRVPVAKMVCGPSGSQLVLLKLERSVTLNQRVALICLPPEWYVVPPGTKCEIAGWGETKGTGNDTVLNVALLNVISNQECNIKHRGRVRESEMCTEGLLAPVGACEGDYGGPLACFTHNAWVLEGIIIPNRVCARSRWPAVFTRVSVFVDWIHKVMRLGHHHHHH
notes: Pro-MSP converted with sHepsin into the disulfide-linked alpha/beta heterodimer; Numbering is that of pro-MSP; also called full-length MSP; human full-length MSP
As to B1, the “IC50 (read off the curve)” value in test [1] is roughly 10 nM. Moreover, the EC50 in test [2] amounted to 0.1 nM. Besides, the figures for the Kd in test [3] and in test [4] were 12.6 nM and 23 nM, respectively.
